This is an account of results in US20200385459A1 (University of Texas, published 2020).

Changes are numbered by the printed parent chain. Values joined by “and” are separate entries in the source; they are usually repeats but may differ in a detail not shown here. Identical values can stand only once.

The target in experiment [1] is T1, His-tagged recombinant human LRP10 protein, LRP10-516H (human) (UniProt Q7Z4F1).
T1 sequence (looked up): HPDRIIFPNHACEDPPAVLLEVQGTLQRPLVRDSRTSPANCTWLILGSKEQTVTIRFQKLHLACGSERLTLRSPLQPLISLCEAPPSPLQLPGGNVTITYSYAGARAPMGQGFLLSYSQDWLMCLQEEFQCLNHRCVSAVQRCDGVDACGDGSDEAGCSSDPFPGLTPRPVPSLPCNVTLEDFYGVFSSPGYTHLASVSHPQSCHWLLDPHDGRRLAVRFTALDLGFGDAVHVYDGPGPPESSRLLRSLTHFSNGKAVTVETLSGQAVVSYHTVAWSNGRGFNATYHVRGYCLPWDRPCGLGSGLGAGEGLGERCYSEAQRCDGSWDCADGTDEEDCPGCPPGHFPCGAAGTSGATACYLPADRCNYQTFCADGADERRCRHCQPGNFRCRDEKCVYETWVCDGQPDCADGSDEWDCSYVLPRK
In words: ELISA, coated LRP10, antibody at 250 ng/ml. A general note: ELISA stands for enzyme-linked immunosorbent assay.

For experiment [2], the target named is T1, His-tagged recombinant human LRP10 protein, LRP10-516H (human). Description: ELISA, coated LRP10, antibody at 0.24 ng/ml.
Experiment [3] has the same target. Description: ELISA, coated LRP10, antibody at 0.98 ng/ml.
For experiment [4] the target is unchanged. Description: ELISA, coated LRP10, antibody at 1000 ng/ml.
The target is the same in experiment [5]. In words: ELISA, coated LRP10, antibody at 3.91 ng/ml.
Experiment [6] shares this target. Description: ELISA, coated LRP10, antibody at 62.5 ng/ml.
For experiment [7] the target is unchanged. Description: ELISA, coated LRP10, antibody at 15.63 ng/ml.
Experiment [8] shares this target. Description: ELISA, coated LRP10, antibody at 0 ng/ml (background well).
Experiment [9] concerns the target T2, mouse LRP10 (Lrp10) on C57BL/6 T cells (mouse (Mus musculus), UniProt Q7TQH7 18-713).
T2 sequence (looked up): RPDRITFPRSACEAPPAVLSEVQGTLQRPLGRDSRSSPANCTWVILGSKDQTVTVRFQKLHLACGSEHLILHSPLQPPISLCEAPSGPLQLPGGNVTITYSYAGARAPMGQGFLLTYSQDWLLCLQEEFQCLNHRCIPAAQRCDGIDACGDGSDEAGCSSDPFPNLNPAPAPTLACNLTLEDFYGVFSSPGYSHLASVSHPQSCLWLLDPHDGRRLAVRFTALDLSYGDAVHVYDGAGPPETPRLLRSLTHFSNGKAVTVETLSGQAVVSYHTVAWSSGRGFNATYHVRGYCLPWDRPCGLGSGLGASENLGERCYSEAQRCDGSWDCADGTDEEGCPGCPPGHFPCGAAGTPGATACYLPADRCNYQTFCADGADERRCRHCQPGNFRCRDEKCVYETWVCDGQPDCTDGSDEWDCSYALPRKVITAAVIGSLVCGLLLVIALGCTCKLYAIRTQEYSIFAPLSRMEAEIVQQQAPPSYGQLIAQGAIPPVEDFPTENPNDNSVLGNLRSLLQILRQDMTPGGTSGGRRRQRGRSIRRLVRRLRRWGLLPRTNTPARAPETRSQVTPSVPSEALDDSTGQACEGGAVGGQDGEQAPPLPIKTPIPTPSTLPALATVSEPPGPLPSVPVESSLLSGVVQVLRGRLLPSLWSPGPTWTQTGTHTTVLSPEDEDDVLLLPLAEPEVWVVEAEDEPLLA
Description: cell-based or functional assay.

Experiment [10] addresses T3, His-tagged recombinant human LRP10 protein, LRP10-516H (human, UniProt Q7Z4F1 17-440).
T3 construct: The ELISA protocol calls the coated protein 'LR10'; also called target protein LR10; target antigen; not shown: His tag
T3 sequence (looked up): T1 sequence (looked up)
Description: ELISA, coated LRP10, serial dilution of antibody. The method, then: 1) Coat the target protein LR10 (1 μg/ml, 0.1 μg/well) in a certain coating buffer (0.1 M NaHCO₃, pH 9.6). Incubate overnight at 4° C. [0234] 2) Wash the wells 3 times with 300 μL washing buffer (0.1% PBST) per well. [0235] 3) Block the wells with 300 μL blocking buffer (3% BSA) for 1 h at 37° C. [0236] 4) Discard the blocking buffer and wash the plate 3 times with the washing buffer, slapping the plate face-down onto a clean section of paper towel each time. [0237] 5) Add 100 μL of a serial dilution of antibodies per well. Incubate at 37° C. for 1 h. [0238] 6) Wash 3 times with the washing buffer. Dilute HRP-goat anti-human IgG (1:4,000) in the blocking buffer (3% BSA). Add 100 μL of diluted conjugate per well and incubate at 37° C. for 1 h. […] 7) Wash 3 times with the washing buffer. Dissolve Tetramethylbenzidine (TMB) substrate (Sigma, USA) in […] citrate-phosphate buffer and add 1 μL/mL H₂O₂ to the solution. Add 100 μL of substrate solution per well and incubate at room temperature for 15 minutes. [0240] 8) Add 100 μL of 2 mol/L H₂SO₄ solution to stop the reaction. [0241] 9) Read plates using a microplate reader set at 490 nm.
For the 8 well-expressed antibodies, we tested their binding activities to the target antigen by ELISA (Table 7 and FIG. 11).

Experiment [11] concerns the target T3, His-tagged recombinant human LRP10 …. In words: ELISA on coated LRP10.

B1: Clone 6 (AB6) (antibody, human IgG1, V domains shown)
VH: EVQLLESGGGLVQPGGSLRLSCAASGFTFSSYAMSWVRQAPGKGLEWVSSIPSRGQATKYADSVKGRFTISRDNSKNTLYLQMNSLRAEDTAVYYCAKSRHTFDYWGQGTLVTVSS
VL: DIQMTQSPSSLSASVGDRVTITCRASQSISSYLNWYQQKPGKAPKLLIYDASLLQSGVPSRFSGSGSGTDFTLTISSLQPEDFATYYCQQTSAGPGTFGQGTKVEIK
With B1, the ELISA signal (plate read at 490 nm) was 0.128 and 0.133 in experiment [1]; 0.0606 and 0.0573 in experiment [2]; 0.0588 and 0.0556 in experiment [3]; 0.289 and 0.349 in experiment [4]; 0.0615 and 0.0582 in experiment [5]; 0.09 and 0.0989 in [6]. Further, the ELISA signal (plate read at 490 nm) was 0.0656 and 0.0659 in experiment [7]; 0.0595 and 0.0594 in experiment [8].

B2: Clone 7 (AB7) (antibody, human IgG1, V domains shown)
VH: B1 VH with P52A, S53T, R54T, Q56N, A57T, K59Y, S99N, R100T, H101A
VL: B1 VL with D50A, L53T, T91N, S92D, A93Y, G94Y, G96T
notes: Expressed as a full antibody in 293F cells, protein A purified; also called AB7 (L7 + H6); AB7: L7 + H6
Usually EC50 stands for the concentration needed to bring the measured effect to its halfway point. For B2, in experiment [9], the “migration rate of T cells in response to SDF-1, transwell” value (shortened to “migration rate of T cells in response”) was around 2 fold higher than vehicle. Further, in experiment [10], the EC50 was 0.0357 mg/L.

B3: Clone 1 (AB1) (antibody, V domains shown)
VH: B1 VH with Y32Q, S53P, R54G, Q56P, A57N, R100Y, H101P, T102S
VL: B1 VL with D50N, L53D, T91S, A93R, G94T, G96T
notes: also called AB1 (L1 + H1); AB1: L1 + H1
In the case of B3, the EC50 in [10] was 0.013 mg/L.

B4: Clone 3 (AB3) (antibody, human IgG1, V domains shown)
VH: B1 VH with S50Q, P52G, S53T, R54M, Q56R, A57P, K59T, R100G, H101K, T102K
VL: B1 VL with D50R, L53R, T91P, S92T, A93S, G94L, G96L
notes: Expressed as a full antibody in 293F cells, protein A purified; also called AB3 (L3 + H2); AB3: L3 + H2
Take B4: in experiment [10], the EC50 was 0.0349 mg/L.

B5: Clone 8 (AB8) (antibody, human IgG1, V domains shown)
VH: B1 VH with P14L, Y32Q, S53P, R54G, Q56P, A57N, R100Y, H101P, T102S
VL: B1 VL with D50N, L53D, T91S, A93R, G94T, G96T
notes: Expressed as a full antibody in 293F cells, protein A purified; also called AB8 (L1 + H7); AB (L1 + H7)
As for B5, the “migration rate of T cells in response” value in [9] is around 2 fold higher than vehicle. Further, in [10], the EC50 was 0.0117 mg/L.

B6: Clone 2 (AB2) (antibody, human IgG1, V domains shown)
VH: B1 VH with Y32Q, S53P, R54G, Q56P, A57N, R100Y, H101P, T102S
VL: B1 VL with D50A, L53P, T91V, S92A, A93R, G94T, G96N
notes: Expressed as a full antibody in 293F cells, protein A purified; also called AB2 (L2 + H1); AB2: L2 + H1
On to B6, for which the “migration rate of T cells in response” value in experiment [9] was around 2 fold higher than vehicle. In experiment [10], the EC50 amounted to 0.0148 mg/L.

B7: Clone 9 (AB9) (antibody, human IgG1, V domains shown)
VH: B1 VH with P52Y, S53T, R54S, Q56A, K59T, R100Y, H101P, T102S
VL: B1 VL with D50N, L53D, T91S, A93R, G94T, G96T
notes: Expressed as a full antibody in 293F cells, protein A purified; also called AB9 (L1 + H8); AB9: L1 + H8
B7: in experiment [11], the binding result is “no binding”.
